Two substances from PMC9359109 can be followed below.

Assay [1] has as its target HLA-B*27:05 class I heavy chain (HC), V5 tagged (human). Briefly: non-reducing two-dimensional isoelectric focusing gel electrophoresis and immunoblot; 1% NP40 lysates resolved by charge in the first dimension and by non-reducing SDS-PAGE in the second, immunoblot with anti-V5; monomers and dimers compared by pI.
Assay [2] has the same target. As to the kind of experiment: non-reducing two-dimensional isoelectric focusing gel electrophoresis and immunoblot of immunoprecipitates; anti-tapasin immunoprecipitates resolved by charge and then by non-reducing SDS-PAGE, immunoblot with anti-V5.
Assay [3] concerns the target HLA-B*27:05 single chain trimer (SCT): NP 383-391 peptide - linker - human beta-2 microglobulin - linker - HLA-B*27:05 heavy chain - V5 (influenza virus | human). Briefly: non-reducing two-dimensional isoelectric focusing gel electrophoresis and immunoblot; 1% NP40 lysates resolved by charge in the first dimension and by non-reducing SDS-PAGE in the second, immunoblot with anti-V5; monomers and dimers compared by pI. In general terms: Immunoblotting shows a protein as a band on a membrane.

For assay [4] the target is unchanged. As to the kind of experiment: non-reducing two-dimensional isoelectric focusing gel electrophoresis and immunoblot of immunoprecipitates; anti-tapasin immunoprecipitates resolved by charge and then by non-reducing SDS-PAGE, immunoblot with anti-V5.

In general, stoichiometry N refers to the number of molecules, sites or subunits per partner or assembly.

With “HLA-B*27:05 class I heavy chain (HC), V5 tagged (natural protein)”, the stoichiometry N in assay [1] and in assay [2] was 2 each time.
Regarding “HLA-B*27:05 single chain trimer (SCT): NP 383-391 peptide - linker - human beta-2 microglobulin - linker - HLA-B*27:05 heavy chain - V5 (from UniProt P61769 21-119) (peptide-MHC)”, the stoichiometry N in assay [3] and in assay [4] was 2 in each case.
